Reference: US20190055314A1

Experiments:
[1] = target: full-length monkey CD137 on the cell surface (cynomolgus monkey); assay: flow cytometry, PMA/ionomycin-activated monkey T cells, antibody 100 nM
[2] = target: full-length human CD137 on the cell surface (human) (UniProt Q07011); assay: flow cytometry, HEK293F cells expressing the receptor, antibody 100 nM [Cont.]
CD95 = assay: as above
[3] = target: CD27 overexpressed on HEK293F cells (UniProt P26842); assay: as above
[4] = target: OX40 overexpressed on HEK293F cells (UniProt P43489); assay: as above
Chain of OX40 overexpressed on HEK293F cells (P43489 29-277 limits assumed): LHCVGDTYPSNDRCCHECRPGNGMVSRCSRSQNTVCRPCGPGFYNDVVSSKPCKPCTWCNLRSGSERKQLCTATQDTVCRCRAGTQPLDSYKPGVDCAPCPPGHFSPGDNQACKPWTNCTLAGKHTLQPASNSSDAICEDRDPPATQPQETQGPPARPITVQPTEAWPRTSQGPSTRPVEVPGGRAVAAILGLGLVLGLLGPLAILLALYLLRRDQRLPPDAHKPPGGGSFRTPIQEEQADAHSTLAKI

[5] = target: CD40 overexpressed on HEK293F cells (UniProt P25942); assay: as above
Chain of CD40 overexpressed on HEK293F cells (P25942 21-277 limits assumed): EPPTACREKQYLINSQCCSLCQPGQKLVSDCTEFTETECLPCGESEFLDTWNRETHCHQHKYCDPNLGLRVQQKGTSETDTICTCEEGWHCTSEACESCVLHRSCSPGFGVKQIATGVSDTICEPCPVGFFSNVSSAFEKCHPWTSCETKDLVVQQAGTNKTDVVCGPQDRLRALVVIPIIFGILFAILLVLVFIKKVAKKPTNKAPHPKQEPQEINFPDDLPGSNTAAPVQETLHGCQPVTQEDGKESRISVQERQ

[6] = target: GITR overexpressed on HEK293F cells (UniProt Q9Y5U5); assay: as above
Chain of GITR overexpressed on HEK293F cells (Q9Y5U5 26-241 limits assumed): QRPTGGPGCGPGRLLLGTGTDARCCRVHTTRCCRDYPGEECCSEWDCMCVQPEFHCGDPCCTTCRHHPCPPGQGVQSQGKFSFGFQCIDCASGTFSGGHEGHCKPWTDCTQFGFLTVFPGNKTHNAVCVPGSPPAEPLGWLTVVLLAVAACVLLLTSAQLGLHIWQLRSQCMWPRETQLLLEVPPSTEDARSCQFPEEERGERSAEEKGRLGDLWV

[7] = target: Hu_CRD2-CRD3-CRD4 (human) (UniProt Q07011); assay: flow cytometry, yeast display [Cont.]
Chain of Hu_CRD2-CRD3-CRD4 (human) (Q07011 46-159 limits assumed): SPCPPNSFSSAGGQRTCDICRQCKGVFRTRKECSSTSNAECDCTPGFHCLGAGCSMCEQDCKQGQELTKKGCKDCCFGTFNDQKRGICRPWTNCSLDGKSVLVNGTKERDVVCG

[8] = target: full-length human CD137 on the cell surface (human) (UniProt Q07011); assay: flow cytometry, yeast display [Cont.]
Hu_CRD2-CRD3 (human) = Hu_CRD2-CRD3 (human) (UniProt Q07011); assay: flow cytometry, yeast display [Cont.]
Chain of Hu_CRD2-CRD3 (human) (Q07011 46-118 limits assumed): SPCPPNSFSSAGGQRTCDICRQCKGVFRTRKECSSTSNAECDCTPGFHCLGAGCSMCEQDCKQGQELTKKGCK

[9] = target: Hu_CRD1-CRD2-CRD3 (human) (UniProt Q07011); assay: flow cytometry, yeast display [Cont.]
Chain of Hu_CRD1-CRD2-CRD3 (human) (Q07011 24-118 limits assumed): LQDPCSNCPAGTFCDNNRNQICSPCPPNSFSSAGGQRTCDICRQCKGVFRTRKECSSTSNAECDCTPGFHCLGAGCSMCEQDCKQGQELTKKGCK

Hu_CRD3-CRD4 (human) = Hu_CRD3-CRD4 (human) (UniProt Q07011); assay: flow cytometry, yeast display [Cont.]
Chain of Hu_CRD3-CRD4 (human) (Q07011 87-159 limits assumed): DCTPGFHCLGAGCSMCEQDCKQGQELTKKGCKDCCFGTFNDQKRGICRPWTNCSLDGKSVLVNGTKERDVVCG

[10] = target: full-length mouse CD137 on the cell surface (mouse) (UniProt P20334); assay: flow cytometry, yeast display [Cont.]
Chain of full-length mouse CD137 on the cell surface (mouse) (P20334 24-178 limits assumed): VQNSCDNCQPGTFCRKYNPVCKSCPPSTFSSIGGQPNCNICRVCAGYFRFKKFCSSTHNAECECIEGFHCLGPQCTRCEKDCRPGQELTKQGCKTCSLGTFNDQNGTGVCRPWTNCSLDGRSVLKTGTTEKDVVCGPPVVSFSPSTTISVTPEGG

Hu_CRD2 (human) = Hu_CRD2 (human) (UniProt Q07011); assay: flow cytometry, yeast display [Cont.]
Chain of Hu_CRD2 (human) (Q07011 46-86 limits assumed): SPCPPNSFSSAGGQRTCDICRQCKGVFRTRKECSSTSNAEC

Hu_CRD1-CRD2 (human) = Hu_CRD1-CRD2 (human) (UniProt Q07011); assay: flow cytometry, yeast display [Cont.]
Chain of Hu_CRD1-CRD2 (human) (Q07011 24-86 limits assumed): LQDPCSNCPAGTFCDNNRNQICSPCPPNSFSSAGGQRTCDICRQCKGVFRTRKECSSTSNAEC

Hu_CRD4 (human) = Hu_CRD4 (human) (UniProt Q07011); assay: flow cytometry, yeast display [Cont.]
Chain of Hu_CRD4 (human) (Q07011 119-159 limits assumed): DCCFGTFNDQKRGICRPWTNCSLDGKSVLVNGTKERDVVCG

[11] = target: purified C1q component of the human complement (human) (UniProt P02745); assay: ELISA, direct binding of antibody to purified human complement C1q, A450
Chain of purified C1q component of the human complement (human) (P02745 23-245, chain 1 of 3): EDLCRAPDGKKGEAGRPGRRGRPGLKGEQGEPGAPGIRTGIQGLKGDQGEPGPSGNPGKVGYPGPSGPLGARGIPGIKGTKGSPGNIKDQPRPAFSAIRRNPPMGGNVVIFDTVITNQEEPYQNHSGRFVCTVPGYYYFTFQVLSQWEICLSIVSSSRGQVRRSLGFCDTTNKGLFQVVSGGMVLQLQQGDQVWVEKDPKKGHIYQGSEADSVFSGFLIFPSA
Chain of purified C1q component of the human complement (human) (P02746 28-253, chain 2 of 3, further chain): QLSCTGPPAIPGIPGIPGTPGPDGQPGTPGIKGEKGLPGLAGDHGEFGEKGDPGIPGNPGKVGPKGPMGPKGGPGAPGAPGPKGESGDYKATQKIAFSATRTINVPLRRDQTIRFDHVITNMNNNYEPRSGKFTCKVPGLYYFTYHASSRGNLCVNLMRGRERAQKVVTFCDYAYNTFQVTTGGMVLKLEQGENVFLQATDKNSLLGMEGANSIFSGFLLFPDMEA
Chain of purified C1q component of the human complement (human) (P02747 29-245, chain 3 of 3, further chain): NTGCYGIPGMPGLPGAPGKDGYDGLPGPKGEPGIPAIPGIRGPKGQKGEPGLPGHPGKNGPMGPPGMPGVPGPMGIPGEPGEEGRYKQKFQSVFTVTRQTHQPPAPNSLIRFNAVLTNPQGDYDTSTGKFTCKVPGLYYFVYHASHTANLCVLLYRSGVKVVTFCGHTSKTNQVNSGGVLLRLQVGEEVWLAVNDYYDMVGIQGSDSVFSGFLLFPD

Chain of full-length human CD137 on the cell surface (human) (Q07011 18-255): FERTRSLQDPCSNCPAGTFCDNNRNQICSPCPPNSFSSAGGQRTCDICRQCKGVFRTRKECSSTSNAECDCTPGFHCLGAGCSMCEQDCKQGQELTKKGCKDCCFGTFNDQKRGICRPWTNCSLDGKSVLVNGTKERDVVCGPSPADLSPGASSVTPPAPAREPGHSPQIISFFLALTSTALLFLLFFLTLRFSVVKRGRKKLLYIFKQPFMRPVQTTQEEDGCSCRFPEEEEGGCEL
Chain of CD95 (chain, as listed by the source limits assumed): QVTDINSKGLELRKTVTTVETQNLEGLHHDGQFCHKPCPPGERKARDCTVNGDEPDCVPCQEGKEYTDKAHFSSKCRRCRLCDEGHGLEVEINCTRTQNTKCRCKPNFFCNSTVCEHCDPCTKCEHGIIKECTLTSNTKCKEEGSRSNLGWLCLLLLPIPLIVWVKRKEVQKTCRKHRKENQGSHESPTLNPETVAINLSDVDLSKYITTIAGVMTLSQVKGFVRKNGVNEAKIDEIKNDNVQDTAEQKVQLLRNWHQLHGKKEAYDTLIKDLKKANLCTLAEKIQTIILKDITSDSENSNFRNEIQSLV
Chain of full-length monkey CD137 on the cell surface (cynomolgus monkey) (Q07011 other isoform, or with tags, fused parts or gaps): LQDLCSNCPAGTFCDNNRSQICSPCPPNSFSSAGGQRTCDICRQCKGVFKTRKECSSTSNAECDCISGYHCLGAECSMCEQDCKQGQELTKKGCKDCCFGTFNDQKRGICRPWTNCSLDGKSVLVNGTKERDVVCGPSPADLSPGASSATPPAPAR
Chain of CD27 overexpressed on HEK293F cells (P26842 20-260 limits assumed): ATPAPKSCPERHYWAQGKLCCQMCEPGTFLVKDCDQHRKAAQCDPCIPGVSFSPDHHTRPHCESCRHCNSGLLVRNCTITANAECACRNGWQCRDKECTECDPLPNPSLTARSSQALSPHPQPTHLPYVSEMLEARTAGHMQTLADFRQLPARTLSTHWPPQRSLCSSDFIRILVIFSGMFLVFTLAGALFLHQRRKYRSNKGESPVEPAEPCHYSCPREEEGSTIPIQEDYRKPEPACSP

Substance: Isotype (antibody)
- % of cells positive for antibody binding [1]: 1.5%
- Mean [2]: 7360
- Mean (CD95): 5140
- Mean [3]: 48100
- Mean [4]: 5300
- Median [5]: 5730
- Mean [6]: 8970
- % in upper right quadrant [7]: 0.2%
- Mean [7]: 15000
- % in upper right quadrant [8]: 0.14%
- Mean [8]: 9600
- % in upper right quadrant (Hu_CRD2-CRD3 (human)): 0.14%
- Mean (Hu_CRD2-CRD3 (human)): 6280
- % in upper right quadrant [9]: 0.1%
- Mean [9]: 3680
- % in upper right quadrant (Hu_CRD3-CRD4 (human)): 0.17%
- Mean (Hu_CRD3-CRD4 (human)): 6860
- % in upper right quadrant [10]: 0.18%
- Mean [10]: 14800
- % in upper right quadrant (Hu_CRD2 (human)): 0.18%
- Mean (Hu_CRD2 (human)): 4650
- % in upper right quadrant (Hu_CRD1-CRD2 (human)): 0.15%
- Mean (Hu_CRD1-CRD2 (human)): 5560
- % in upper right quadrant (Hu_CRD4 (human)): 0.23%
- Mean (Hu_CRD4 (human)): 11000

Substance: human IgG1 isotype control antibody
- EC50 (read off the curve) [11]: 2 nM

Substance: mouse CD137L (from UniProt P41274 104-309) (ligand)
- % in upper right quadrant (Hu_CRD2 (human)): 0.16%
- Mean (Hu_CRD2 (human)): 14600
